The target of this experiment is T1, eL8, ribosomal protein of the Pf60S subunit (P. falciparum (3D7 strain), UniProt Q8ILL2 1-283).
T1 construct: eL8 of the P. falciparum 3D7 cytoplasmic ribosome; total number of residues 283; built residues 40-46, 54-131, 147-283; extensions compared to human 11-24 and 279-283; Native protein as part of the whole 80S ribosome; also called Q8ILL2_PLAF7; PF3D7_1424400; source: endogenous, in Pf80S ribosomes purified from P. falciparum 3D7 parasites (sucrose cushion, 10-40% sucrose gradient)
T1 sequence (looked up): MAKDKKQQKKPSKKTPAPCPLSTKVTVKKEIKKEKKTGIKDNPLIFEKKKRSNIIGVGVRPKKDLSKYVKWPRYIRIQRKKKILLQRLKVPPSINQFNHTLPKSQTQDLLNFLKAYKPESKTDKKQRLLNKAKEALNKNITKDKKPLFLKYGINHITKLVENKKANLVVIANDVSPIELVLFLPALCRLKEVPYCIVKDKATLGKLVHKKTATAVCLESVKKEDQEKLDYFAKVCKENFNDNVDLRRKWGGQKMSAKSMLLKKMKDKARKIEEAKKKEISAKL
Description: cryo-EM structure; native Pf80S ribosome purified from parasites, 160 nM, incubated with 1 mM emetine for 15 min at 25°C in 20 mM Hepes pH 7.4, 40 mM KCH3COO, 10 mM NH4CH3COO, 10 mM Mg(CH3COO)2, 5 mM 2-mercaptoethanol; 3.2 Å overall; the two proteins are members of the co-purified ribosome. Conditions: both partners purified.

B1: eS1, ribosomal protein of the Pf40S subunit (natural protein, P. falciparum (3D7 strain), UniProt O97313 1-262, looked up)
chain: MAVGKNKRTSKGKKGGKKKVTDVFTKKEWYDLKAPKMFLVRNFGKTLVTKTIGKKLATDSLKGRIYEVNLADLNNDEDQAHKKIKLSCDHIINRDCYTDFCGLSITRDKLCSLIRKGYTLIEGHTDVKTLDNYHLRMFCIAFTKKRQNQTKSTCYAQTSQIKKIRKKMVDIMTAEASKVLLKDLVKKFIPESIGKEIEKQCKKIYPLQNVLIRKVKILKRPKLDISKLMELHTDPKEESGKNVNALPESKEATNILTAELKH
notes: eS1 of the P. falciparum 3D7 cytoplasmic ribosome; total number of residues 262; built residues 24-233; extension compared to human 245-262; Native protein as part of the whole 80S ribosome; also called PF3D7_0322900; source: endogenous, in Pf80S ribosomes purified from P. falciparum 3D7 parasites (sucrose cushion, 10-40% sucrose gradient)
On to B1, for which the binding result is recorded as “binds”.
